# B1: Integrin αvβ5 (receptor)
# chain 1: FNLDVDSPAEYSGPEGSYFGFAVDFFVPSASSRMFLLVGAPKANTTQPGIVEGGQVLKCDWSSTRRCQPIEFDATGNRDYAKDDPLEFKSHQWFGASVRSKQDKILACAPLYHWRTEMKQEREPVGTCFLQDGTKTVEYAPCRSQDIDADGQGFCQGGFSIDFTKADRVLLGGPGSFYWQGQLISDQVAEIVSKYDPNVYSIKYNNQLATRTAQAIFDDSYLGYSVAVGDFNGDGIDDFVSGVPRAARTLGMVYIYDGKNMSSLYNFTGEQMAAYFGFSVAATDINGDDYADVFIGAPLFMDRGSDGKLQEVGQVSVSLQRASGDFQTTKLNGFEVFARFGSAIAPLGDLDQDGFNDIAIAAPYGGEDKKGIVYIFNGRSTGLNAVPSQILEGQWAARSMPPSFGYSMKGATDIDKNGYPDLIVGAFGVDRAILYRARPVITVNAGLEVYPSILNQDNKTCSLPGTALKVSCFNVRFCLKADGKGVLPRKLNFQVELLLDKLKQKGAIRRALFLYSRSPSHSKNMTISRGGLMQCEELIAYLRDESEFRDKLTPITIFMEYRLDYRTAADTTGLQPILNQFTPANISRQAHILLDCGEDNVCKPKLEVSVDSDQKKIYIGDDNPLTLIVKAQNQGEGAYEAELIVSIPLQADFIGVVRNNEALARLSCAFKTENQTRQVVCDLGNPMKAGTQLLAGLRFSVHQQSEMDTSVKFDLQIQSSNLFDKVSPVVSHKVDLAVLAAVEIRGVSSPDHVFLPIPNWEHKENPETEEDVGPVVQHIYELRNNGPSSFSKAMLHLQWPYKYNNNTLLYILHYDIDGPMNCTSDMEINPLRIKISSLQTTEKNDTVAGQGERDHLITKRDLALSEGDIHTLGCGVAQCLKIVCQVGRLDRGKSAILYVKSLLWTETFMNKENQNHSYSLKSSASFNVIEFPYKNLPIEDITNSTLVTTNVTWGIQPAPMPVPVWVIILAVLAGLLLLAVLVFVMYRMGFFKRVRPPQEEQEREQLQPHENGEGNSET
# chain 2: GLNICTSGSATSCEECLLIHPKCAWCSKEDFGSPRSITSRCDLRANLVKNGCGGEIESPASSFHVLRSLPLSSKGSGSAGWDVIQMTPQEIAVNLRPGDKTTFQLQVRQVEDYPVDLYYLMDLSLSMKDDLDNIRSLGTKLAEEMRKLTSNFRLGFGSFVDKDISPFSYTAPRYQTNPCIGYKLFPNCVPSFGFRHLLPLTDRVDSFNEEVRKQRVSRNRDAPEGGFDAVLQAAVCKEKIGWRKDALHLLVFTTDDVPHIALDGKLGGLVQPHDGQCHLNEANEYTASNQMDYPSLALLGEKLAENNINLIFAVTKNHYMLYKNFTALIPGTTVEILDGDSKNIIQLIINAYNSIRSKVELSVWDQPEDLNLFFTATCQDGVSYPGQRKCEGLKIGDTASFEVSLEARSCPSRHTEHVFALRPVGFRDSLEVGVTYNCTCGCSVGLEPNSARCNGSGTYVCGLCECSPGYLGTRCECQDGENQSVYQNLCREAEGKPLCSGRGDCSCNQCSCFESEFGKIYGPFCECDNFSCARNKGVLCSGHGECHCGECKCHAGYIGDNCNCSTDISTCRGRDGQICSERGHCLCGQCQCTEPGAFGEMCEKCPTCPDACSTKRDCVECLLLHSGKPDNQTCHSLCRDEVITWVDTIVKDDQEAVLCFYKTAKDCVMMFTYVELPSGKSNLTVLREPECGNTPNAMTILLAVVGSILLVGLALLAIWKLLVTIHDRREFAKFQSERSRARYEMASNPLYRKPISTHTVDFTFNKFNKSYNGTVD
# notes: integrin alpha-V subunit, human, endogenous on the surface of MDA-MB-435 and MCF7 cells; integrin beta-5 subunit, human, endogenous on the surface of MDA-MB-435 and MCF7 cells; no isolated integrin was used; source: endogenous, on MDA-MB-435 and MCF7 cells
# Target: Adenovirus Serotype 5, replication incompetent, E1A deleted, expressing GFP (Ad5-GFP), whole virus (human adenovirus serotype 5, UniProt P12538 1-571); P11818 1-581; P04133 1-952, Whole virion. Only the three major capsid proteins named in the paper are given, as wild type: penton base (5 at each of 12 vertices), fiber (trimer at each vertex), hexon (240 trimers; the paper prin)
# Assay: ELISA; cell-based: MDA-MB-435 cells in 96-well poly-D-lysine plates, incubated with whole Ad5 at varying concentrations for 18 hrs at 4°C, washed, fixed; bound virus detected with polyclonal rabbit anti-Ad5 and an ELISA amplification system; fit to the Langmuir binding isotherm
# Details: one partner purified
binder,measurement,value
B1,Kd,140 pM

# Reference: paper PMC2909962, “Integrin αvβ5 is a primary receptor for adenovirus in CAR-negative cells” (Virology Journal, 2010)
